The results in this text go back to PMC4434712 (Proceedings of the National Academy of Sciences of the …, 2015).

Common to all, as to assay: crystal structure
For experiment [1], the target named is T1, VZV glycoprotein gH (ectodomain, as in the gHgL crystal structures) (varicella-zoster virus, UniProt P09260).
For experiment [2], the target named is T2, VZV glycoprotein gL (varicella-zoster virus, UniProt P09308).
Experiment [3] concerns the target T1, VZV glycoprotein gH (ectodomain, as in …). This is another data set of the same source.
For experiment [4], the target named is T2, VZV glycoprotein gL. This is another data set of the same source.

Where two headings read alike, the source gives them in different places.

T1 sequence (P09260 18-795): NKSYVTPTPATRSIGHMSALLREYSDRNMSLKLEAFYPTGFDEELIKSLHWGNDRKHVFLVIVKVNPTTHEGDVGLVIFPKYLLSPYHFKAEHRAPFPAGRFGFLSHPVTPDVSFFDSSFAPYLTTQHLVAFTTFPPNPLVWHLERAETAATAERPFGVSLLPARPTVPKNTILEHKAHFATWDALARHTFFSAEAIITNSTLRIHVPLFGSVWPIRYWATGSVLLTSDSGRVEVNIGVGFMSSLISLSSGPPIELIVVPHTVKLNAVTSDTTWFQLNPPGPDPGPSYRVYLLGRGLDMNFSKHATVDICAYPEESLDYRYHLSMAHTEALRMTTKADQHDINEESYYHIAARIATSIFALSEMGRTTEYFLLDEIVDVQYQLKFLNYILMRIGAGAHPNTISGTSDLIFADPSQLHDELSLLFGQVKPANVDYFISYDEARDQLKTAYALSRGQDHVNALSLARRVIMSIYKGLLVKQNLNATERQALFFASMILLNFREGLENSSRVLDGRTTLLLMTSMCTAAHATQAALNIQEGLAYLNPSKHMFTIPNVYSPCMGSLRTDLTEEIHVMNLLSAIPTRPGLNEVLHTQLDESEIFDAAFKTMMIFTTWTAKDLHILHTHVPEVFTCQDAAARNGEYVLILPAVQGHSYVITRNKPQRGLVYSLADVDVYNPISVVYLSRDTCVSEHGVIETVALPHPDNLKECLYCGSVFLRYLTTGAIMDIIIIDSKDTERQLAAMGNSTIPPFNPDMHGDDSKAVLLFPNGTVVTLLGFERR
T2 sequence (P09308 22-159): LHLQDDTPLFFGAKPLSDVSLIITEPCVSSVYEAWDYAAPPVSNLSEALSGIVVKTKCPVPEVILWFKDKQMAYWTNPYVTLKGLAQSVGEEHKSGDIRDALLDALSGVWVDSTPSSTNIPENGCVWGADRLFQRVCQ

B1: Fab-RC, Fab fragment of the human monoclonal antibody IgG-RC (Fab, V domains shown)
VH: QVQLVQSGAEMKKPGASVKVSCKASGYTFIGYHLHWVRQAPGQGLEWMGWINPNSGETNYAQKFQDWVTMTRDTSINTAYMELRLRSDDTAVYYCARGGMTMVRGVMMDWGQGTLVTVSS
VL: DIQMTQSPSFLSASVGDRVTITCRASQGLDNFLAWYQQKPGKAPKLLIYAASTLQRGVPSRFGGSGSGTEFTLTISSLQPEDFATYYCQQLNSYSLTFGPGTKVEIK
For the molecule B1, the binding result (in experiment [1]; in the experiment with VZV glycoprotein gL [2]) was “binds” each time.

B2: Fab-94, Fab fragment of the human monoclonal antibody IgG-94 (Fab, V domains shown)
VH: EVQLVESGGGVVQPGRSLRLSCGASGFTFNTYAMHWVRQAPGKGVEWVAVVSDGGGNRYYAASVKGRFTISRDNSKNTLFLQLNTLRPEDTAVYYCARSRGNHYYYGMDVWGRGTTVTVSS
VL: DIQMTQSPSSVSASVGDRVTITCRASQGISSWLAWYQQKPGKAPKLLIYAASSLQSGVPSRFSGSGSGTDFTLTISSLQPEDFATYYCQQANNFPLTFGGGTKVEIK
B2: the binding result (in experiment [3]; with VZV glycoprotein gL [4]) was “binds” each time.
